Data set [1] addresses T1, XMPP (XMPP-HAStrep; SDTL1) (Arabidopsis thaliana, UniProt F4ISS8).
T1 construct: gene At2g32150; monomer
T1 sequence (F4ISS8 1-263): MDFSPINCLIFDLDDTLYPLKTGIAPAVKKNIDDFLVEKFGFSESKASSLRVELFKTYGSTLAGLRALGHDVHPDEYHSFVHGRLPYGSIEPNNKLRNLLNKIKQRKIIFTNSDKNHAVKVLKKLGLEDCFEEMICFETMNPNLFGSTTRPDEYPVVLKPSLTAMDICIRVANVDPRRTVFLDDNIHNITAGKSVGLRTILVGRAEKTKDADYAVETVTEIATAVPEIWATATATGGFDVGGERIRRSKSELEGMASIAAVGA
The experiment in a line: inhibition of XMP hydrolysis (phosphate assay). In kind it is biochemical. To be noted: 10 μM XMP as substrate; 22 °C.

Data set [2] addresses T2, XMPP (C-terminal His-tagged full-length XMPP) (Arabidopsis thaliana, UniProt F4ISS8).
T2 construct: gene At2g32150; full-length (13 residues beyond Ser250), C-terminal His tag, expressed in E. coli, HisTrap purified; monomer
T2 sequence (F4ISS8 1-263): T1 sequence (F4ISS8 1-263)
In words: EnzChek phosphate assay (MESG / purine nucleoside phosphorylase), initial rates. In kind it is biochemical. To be noted: 30 °C, pH 7.5 (50 mM Tris), 1.25 mM MgCl2.

Data set [3] addresses T2, XMPP (C-terminal His-tagged full-length XMPP). The description is as above. Type of data set: biochemical. The conditions noted are these: 30 °C, pH 7.5 (50 mM Tris), 1.25 mM MgCl2. This is another data set of the same source.
Substrate in the data set “purified protein”: O=c1[nH]c(=O)c2ncn([C@@H]3O[C@H](COP(=O)(O)O)[C@@H](O)[C@H]3O)c2[nH]1
In words: purified protein. Type of data set: biochemical, Arabidopsis thaliana. The conditions noted are these: 22 °C.

Substrate in data set [4]: O=c1[nH]c(=O)c2ncn([C@@H]3O[C@H](COP(=O)(O)O)[C@@H](O)[C@H]3O)c2[nH]1
The experiment in a line: EnzChek phosphate assay (MESG / purine nucleoside phosphorylase), initial rates. Type of data set: biochemical, Arabidopsis thaliana. The conditions noted are these: 30 °C, pH 7.5 (50 mM Tris), 1.25 mM MgCl2. Here is the method: EnzChek phosphate assay (MESG / purine nucleoside phosphorylase), initial rates on XMPP (C-terminal His-tagged full-length XMPP) | enzymatic activities and kinetic constants of XMPP variants were determined

`O=c1[nH]c(=O)c2ncn([C@@H]3O[C@H](CO)[C@@H](O)[C@H]3O)c2[nH]1` [xanthosine]: the inhibition entry in data set [1] is given as “For XMPP, we confirmed an inhibition by xanthosine”.

With `O=c1[nH]c(=O)c2ncn([C@@H]3O[C@H](COP(=O)(O)O)[C@@H](O)[C@H]3O)c2[nH]1` [XMP], the KM result was “hydrophobic residues Val28, Ile31, and Phe55 that shape the xanthine-binding pocket” in data set [2]; “direct and indirect hydrogen bonds to Thr61, Lys29, and Arg51” in data set [3].

B1: XMPP (XMPP-HAStrep; SDTL1) (Arabidopsis thaliana) (protein)
chain: T1 sequence (F4ISS8 1-263)
notes: monomer
As usually defined, the Km is the substrate concentration at which the rate is half of its maximum. What is called kcat is the maximal rate divided by the concentration of active sites. Turning to B1, in the data set “purified protein”, the Km came to 3.9 ± 0.2 µM and the kcat worked out at 9.2 ± 0.1 s⁻¹.

B2: XMPP (C-terminal His-tagged full-length XMPP) (Arabidopsis thaliana) (protein)
chain: T1 sequence (F4ISS8 1-263)
notes: full-length (13 residues beyond Ser250), C-terminal His tag, expressed in E. coli, HisTrap purified; monomer
With B2, in data set [4], the Km is reported as 8.1(0.8) μM and the turnover number (kcat) is listed as 16.5(0.33) s^-1.

Values taken from paper PMC8616923, “Initiation of cytosolic plant purine nucleotide catabolism involves a monospecific xanthosine monophosphate phosphatase” (Nature Communications, 2021).
